The star is where a group is joined. Biotin = O=C1N[C@H]2[C@H](CS[C@H]2CCCCC(=O)*)N1; Ttds = NCCCOCCOCCOCCCNC(=O)CCC(=O)*
Molecular target: recombinant GC (Cerezyme, Genzyme Therapeutics) (UniProt P04062)
Test: cell-based or functional assay

GC enzyme activity [times]	half-life of GC activity at 37° C. (stabilization assay) [h]	Binder
5	48	{Biotin-Ttds}-LREIIEAMLKAYQQKLFVTHTVDE-OH [Helix 5 peptide (LIMP-2-derived, L152-E175)]
	24	{Biotin-Ttds}-LREDDEAMDKAYQQKLFVTHTVDE-OH [3xD Helix 5 peptide]

From patent US20170258870A1
